The values below come from publication PMC6048055, “O2-inducible H2O2-forming NADPH oxidase is responsible for the hyper O2 sensitivity of Bifidobacterium longum subsp. infantis” (Scientific Reports, 2018).

One data set deals with T1, NADPH oxidase (NPOX) (Bifidobacterium longum, UniProt A0ACD7UUP8).
T1 construct: gene Blon_2447; native enzyme purified from B. infantis cells; 254 residues; 29 kDa by SDS-PAGE
T1 sequence (A0ACD7UUP8 52-305): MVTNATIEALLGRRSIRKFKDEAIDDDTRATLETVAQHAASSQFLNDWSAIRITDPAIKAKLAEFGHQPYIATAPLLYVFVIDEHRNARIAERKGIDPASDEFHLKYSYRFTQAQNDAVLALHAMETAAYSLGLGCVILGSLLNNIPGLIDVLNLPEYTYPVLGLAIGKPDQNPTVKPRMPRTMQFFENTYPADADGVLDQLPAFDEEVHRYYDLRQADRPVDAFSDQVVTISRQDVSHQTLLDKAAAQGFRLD
As to the kind of experiment: HPLC of flavin extracted from purified enzyme; UV-Vis spectrum. The conditions noted are these: co-purified bound flavin, flavoprotein absorbance maxima […] nm. Type of data set: binding.

Data set [1] concerns NC(=O)C1=CN([C@@H]2O[C@H](COP(=O)(O)OP(=O)(O)OC[C@H]3O[C@@H](n4cnc5c(N)ncnc54)[C@H](OP(=O)(O)O)[C@@H]3O)[C@@H](O)[C@H]2O)C=CC1. Briefly: purified protein. The conditions noted are these: O2 as electron acceptor (air saturated), 50 mM potassium phosphate pH 6.5, 37 °C, apparent Km.
The test system of data set [2] is NC(=O)C1=CN([C@@H]2O[C@H](COP(=O)(O)OP(=O)(O)OC[C@H]3O[C@@H](n4cnc5c(N)ncnc54)[C@H](O)[C@@H]3O)[C@@H](O)[C@H]2O)C=CC1. As to the kind of experiment: purified protein. The conditions noted are these: O2 as electron acceptor (air saturated), 50 mM potassium phosphate pH 6.5, 37 °C, apparent Km.

As for `Cc1cc2nc3c(=O)[nH]c(=O)nc-3n(C[C@H](O)[C@H](O)[C@H](O)COP(=O)(O)O)c2cc1C` [FMN], at NADPH oxidase (NPOX), the “HPLC of flavin extracted from purified enzyme; UV-Vis spectrum” value was “The bound flavin was identified as FMN by HPLC analysis”.

In general, Km refers to the concentration of substrate that gives half-maximal velocity. Consider “NADPH oxidase (NPOX) (Bifidobacterium longum subsp. infantis ATCC 15697 = JCM 1222 = DSM 20088)”, for which the Km in data set [1] turned out to be 1.38 ± 0.12 µM; in data set [2] it was 113.3 ± 7.3 µM.
